Data taken from CN105646713A (UNIV CHINA PHARMA, dated 2016).

Target: T1, CD24多肽 (human, UniProt P25063 27-59)
T1 construct: domain: CD24核心区; also called CD24核心区多肽; 抗原肽CD24
T1 peptide (looked up): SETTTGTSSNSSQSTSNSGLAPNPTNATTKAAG
Assay: Competitive ELISA by the Friguet method: 10 pM antibody preincubated overnight with 0-6.25e-10 M antigen, then free antibody captured on coated CD24 peptide; KD from linear regression

Kd: 840 pM
B1: 单克隆抗体E4 (antibody, V domains shown)
VH: QVKLEESGGGLVQPGGSLKISCAASGPDFSRYWMSWVRQAPGKGLEWIGEINPDYSTINYTPSLRDKFIISRDNAKNTLYLQMSKVRYEDTSLYYCVRQGDYWGQGTSVTVSS
VL: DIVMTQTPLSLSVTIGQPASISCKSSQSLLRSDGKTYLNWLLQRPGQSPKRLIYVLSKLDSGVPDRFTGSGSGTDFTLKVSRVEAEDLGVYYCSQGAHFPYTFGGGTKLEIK
notes: also called E4杂交瘤细胞株抗体
